Patent publication US20110263830A1
Each block holds one binder with its values, some of them ahead of it.

Target: c-Met receptor (human) (UniProt P08581)
Assay: cell-based or functional assay

Chain of UniProt P08581 (P08581 25-1390): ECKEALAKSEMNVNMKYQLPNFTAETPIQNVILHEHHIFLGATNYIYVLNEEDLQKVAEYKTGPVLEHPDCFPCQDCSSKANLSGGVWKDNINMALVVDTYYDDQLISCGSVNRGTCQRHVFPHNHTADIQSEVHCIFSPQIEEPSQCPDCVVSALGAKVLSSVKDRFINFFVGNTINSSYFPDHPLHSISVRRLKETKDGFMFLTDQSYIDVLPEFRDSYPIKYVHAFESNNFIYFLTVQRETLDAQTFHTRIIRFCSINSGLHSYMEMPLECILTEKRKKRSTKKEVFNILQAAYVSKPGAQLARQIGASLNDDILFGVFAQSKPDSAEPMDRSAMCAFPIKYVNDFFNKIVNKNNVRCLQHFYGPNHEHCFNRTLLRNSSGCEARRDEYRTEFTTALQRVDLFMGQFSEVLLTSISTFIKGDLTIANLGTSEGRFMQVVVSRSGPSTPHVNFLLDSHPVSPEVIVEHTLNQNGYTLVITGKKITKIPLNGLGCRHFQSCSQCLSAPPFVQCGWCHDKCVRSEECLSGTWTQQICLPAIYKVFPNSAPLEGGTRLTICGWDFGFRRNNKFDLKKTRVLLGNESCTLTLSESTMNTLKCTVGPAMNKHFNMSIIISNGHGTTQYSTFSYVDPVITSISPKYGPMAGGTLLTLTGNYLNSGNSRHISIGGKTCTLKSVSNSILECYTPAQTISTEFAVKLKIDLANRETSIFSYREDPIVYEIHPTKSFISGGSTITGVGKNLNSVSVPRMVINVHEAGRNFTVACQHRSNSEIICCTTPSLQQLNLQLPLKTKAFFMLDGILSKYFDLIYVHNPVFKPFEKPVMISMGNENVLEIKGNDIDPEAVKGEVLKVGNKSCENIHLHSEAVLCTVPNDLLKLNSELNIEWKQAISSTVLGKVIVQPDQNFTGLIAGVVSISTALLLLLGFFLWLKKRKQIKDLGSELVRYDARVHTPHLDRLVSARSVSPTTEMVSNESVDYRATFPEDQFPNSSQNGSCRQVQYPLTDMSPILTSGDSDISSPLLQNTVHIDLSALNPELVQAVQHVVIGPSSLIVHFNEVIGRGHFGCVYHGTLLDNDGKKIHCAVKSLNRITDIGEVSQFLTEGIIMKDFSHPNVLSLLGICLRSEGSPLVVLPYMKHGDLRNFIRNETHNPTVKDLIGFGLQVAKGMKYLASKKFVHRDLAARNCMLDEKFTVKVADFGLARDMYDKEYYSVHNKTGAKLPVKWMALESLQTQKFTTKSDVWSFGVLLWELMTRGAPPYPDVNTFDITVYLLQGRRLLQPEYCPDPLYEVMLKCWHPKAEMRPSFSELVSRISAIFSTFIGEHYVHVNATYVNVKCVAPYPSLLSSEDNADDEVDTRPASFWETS

agonist effect on c-Met receptor phosphorylation, A549 cells (phospho-c-Met ELISA) (% of HGF effect): < 5
inhibition of HGF [100 ng/ml]-induced c-Met receptor phosphorylation, A549 cells (% inhibition of HGF effect): > 70
inhibition of HGF-induced proliferation of NCI-H441 cells ([3H]Thymidine): 80 % inhibition
B1: murine 227H1 Mab (antibody, from another filing, mouse IgG1, V domains shown)
VH: EVQLQQSGPELVKPGASMKISCKASGYSFTDYTLNWVKQSHGKTLEWIGLINPYNGGTTYNQKFKGKATLTVDKSSSTAYMELLSLTSEDSAVYYCAREEITKDFDFWGQGTTLTVSS
VL: GIVLTQSPASLAVSLGQRATISCRVSESIDTYGNSFIHWYQQKPGQPPKLLIYRASNLESGIPARFSGSGSRTDFTLTINPVEADDSATYYCQQSNEDPFTFGSGTKLEMK

agonist effect on c-Met receptor phosphorylation, A549 cells (phospho-c-Met ELISA) (% of HGF effect): < 5
inhibition of HGF [100 ng/ml]-induced c-Met receptor phosphorylation, A549 cells (% inhibition of HGF effect): > 70
inhibition of HGF-induced proliferation of NCI-H441 cells ([3H]Thymidine): 80 % inhibition
B2: murine 11E1 Mab (antibody, from another filing, mouse IgG1, V domains shown)
VH: QVQLQQSGAELAKPGASVKMSCKASGYTFTSYWMNWVKQRPGQGLEWIGYINPTTGSTDYNQKLKDKATLTADKSSNTAYMQLSSLTSEDSAVYYCAIGGYGSWFAYWGQGTLVTVSA
VL: QIVLTQSPAIMSASPGEKVTLTCSASSSVSSTYLYWYQQKPGSSPKLWIYTTSILASGVPARFSGSGSGTSYSLTISSMETEDAASYFCHQWSSYPFTFGSGTKLDIK
